We go through one substance from patent publication US20020150536A1.

The target in test [1] is αvβ3 integrin (human) (UniProt P06756). Description: competition ELISA, displacement of biotinylated vitronectin (10 nM) from immobilized αvβ3 (FIG. 4A). On the technique in general: ELISA stands for enzyme-linked immunosorbent assay.
The target is the same in test [2]. Description: competition ELISA, displacement of biotinylated fibrinogen (6 nM) from immobilized αvβ3 (FIG. 4B).

In general, IC50 refers to the midpoint of a concentration-inhibition curve. Lower therefore signals higher potency.

With αvβ3-specific monoclonal antibody LM609, the IC50 with αvβ3 integrin (human) [1] stood at 2.7 nM; with αvβ3 integrin (human) [2] it was 6.3 nM.
